In US12258605B2, “Alkane oxidation by modified hydroxylases” (The California Institute of Technology, priority 2005, dated 2025):
Marks after values point to notes of the source that are not given here.

Columns and labels:
Assay type in all cases: biochemical
[1] = Methane to methanol conversion (alcohol oxidase/Purpald); conditions: methane to methanol
Method: The 35-E11 variant was tested for the ability to convert methane to methanol using the method of Anthon and Barrett (Agric. Food Chem., 52:3749 (2004)). The method was optimized so that it could detect methanol concentrations in water as low as 10 μM.
The mutant BM-3 enzymes described below were purified using published procedures and used as catalysts in small reactions with methane. In glass head space vials containing magnetic stirring bars, BM-3 catalyst was added to 0.1 M potassium phosphate buffer (pH=8) saturated with methane. The vials were then crimped shut and charged to 20 psi with methane. To start the biotransformation, an NADPH regeneration system consisting of NADP+, isocitrate, and isocitric dehydrogenase was added through a syringe. The reaction was allowed to stir 12-15 hours. Methanol production was measured using a coupled enzyme assay. Aliquots of the reaction were transferred to 96-well microtitre plates and reacted with the enzyme alcohol oxidase for 5 minutes at room temperature. Alcohol oxidase converts the methanol produced by the BM-3 variants into formaldehyde which can be detected with the dye Purpald. To detect formaldehyde and quench the alcohol oxidase reaction, a solution of Purpald in 2 M NaOH was added and allowed to react for one hour. The purple color that Purpald forms in the presence of formaldehyde was quantified one hour later by spectrophotometrically reading the well at 550 nm and comparing the absorbance against similarly-treated solutions of BM-3, NADPH regeneration system, and methane-free buffer spiked with known concentrations of methanol. The results of these biotransformations are reported in Table 3 and sample spectra from the colorimetric assay are shown in FIG. 7.
Reactions for enzyme-catalyzed conversion of methane to methanol were carried out in 10 mL glass headspace vials. A 470 μL reaction mixture containing 5 μM purified BM-3 variant in 0.1 M potassium phosphate buffer (pH 8.0) was first added to the vial. The vial was immediately topped with a septum, pressurized with 30 psi of methane and shaken at 4° C. for 1 hour. […] For determination of total turnover, the reaction was allowed to proceed for 20 hours at room temperature.
The amount of methanol product formed during the 20 hr methane reaction was quantified colorimetrically with the use of alcohol oxidase and Purpald. 190 μL of the reaction mixture is transferred onto a single cell of a 96 well plate. 10 μL of 0.05 U/μL solution of alcohol oxidase (from Pichia pastoris, purchased from Sigma-Aldrich) was added to cell and allowed to incubate at room temperature for 5 minutes. During this time, the alcohol oxidase converts the methanol into formaldehyde. Purpald (168 mM in 2 M NAOH) was then added to form a purple product with the formaldehyde in solution. The purple color was read approximately 1 hour later at 550 nm using a Spectramax Plus microtiter plate reader. The concentration of methanol was determined based on the measure absorbance in comparison to a methanol calibration curve. The methanol calibration curve was generated with several standards. Each standard contained 100 μL of a methanol solution (10, 20, 40, 60, 100 μM) and 90 μL of the methane reaction mixture described above, without the methane pressurization.
The relative dimethyl ether (DME) activity was measured, 1 hour after treatment with Purpald, as the average net and absorbance at 550 nm from 8 microtitre plate DME reactions of the mutant compared to 8 equivalent reactions of 35-E11. All values were normalized by measuring the P450 concentration in each well with CO binding. “Asteriks” indicate criteria used to select mutants from libraries for further characterization. The oxidation rate is measured as absorbance change at 340 nm over 1 minute upon the addition of NADPH to 8 microtitre plate wells containing P450-containing cell lysate and compared to 8 equivalent reactions of 35-E11. […]

[2] = High-throughput dimethyl ether (DME) screen; conditions: relative to 35-E11; normalized to P450 concentration
Method: Cell lysates for high throughput screening were prepared as described previously (Peters et al., J. Am. Chem. Soc. 125:13442 (2003); incorporated by reference herein). High-throughput dimethyl ether (DME) screens were performed in 96 well plates as described previously. Improved mutants were selected based on an increased signal compared to 9-10A (for the saturation mutagenesis libraries) and 1-12G (for the recombination library). Reactions on octane and propane were analyzed by gas chromatography as described.
(§1) Libraries of mutants of 35-E11 were screened for phenotypes indicative of either increased product formation on small gaseous substrates slightly larger than methane. Additionally, they were screened for increased coupling of the consumption of NADPH reducing equivalents to product formation. Product formation was determined by measuring total amount of dimethyl ether hydroxylation while increased coupling was determined primarily by decreased background NADPH consumption rates (measured spectrophotometrically at 340 nm in the absence of substrate).
The relative dimethyl ether (DME) activity was measured, 1 hour after treatment with Purpald, as the average net and absorbance at 550 nm from 8 microtitre plate DME reactions of the mutant compared to 8 equivalent reactions of 35-E11. All values were normalized by measuring the P450 concentration in each well with CO binding. “Asteriks” indicate criteria used to select mutants from libraries for further characterization. The oxidation rate is measured as absorbance change at 340 nm over 1 minute upon the addition of NADPH to 8 microtitre plate wells containing P450-containing cell lysate and compared to 8 equivalent reactions of 35-E11. All values were normalized by measuring the P450 concentration in each well with CO binding. The total turnover number (TTN) was measured as the absorbance at 550 nm of methane reactions with each mutant after treatment with alcohol oxidase and
Screening libraries by spectroscopically monitoring NADPH consumption rates in the presence of the alkane often selects for mutants with NADPH oxidation rates highly uncoupled to product formation. This can be overcome through the use of surrogate substrates that mimic desired substrates, yet yield species when hydroxylated that are easily detected either directly or with the addition of a dye. For example, the screen for the high-throughput identification of mutant BM-3 enzymes with activity towards propane as described previously uses dimethyl ether (DME) as a propane surrogate substrate. Upon hydroxylation, it decomposes into methanol and dye-sensitive formaldehyde. In addition, hexyl methyl ether (HME) may be used as a surrogate for octane. It shares most of the physical properties of octane, including solubility in buffer, size, shape, and strength of its C—H bonds. When HME is hydroxylated at its methoxy carbon, it also produces an equivalent of formaldehyde which is visually detected at concentrations as low as 10 μM with the dye Purpald (see FIG. 25). Hexanal, the aldehyde product formed when the α-carbon of the hexyl group is hydroxylated, is practically unreactive towards Purpald at some concentrations used in the present screens. Formaldehyde is approximately 42 times more sensitive to Purpald than hexanal (see FIG. 26). This disproportionate response makes HME, in contrast to the symmetric ether DME, a regio-selective screen for terminal alkane hydroxylation.
High-throughput screening. Single colonies were picked and inoculated by a Qpix robot (Genetix, Beaverton, OR) into 1-mL, deep-well plates containing LB (Amp*) medium (400 μL). The plates were incubated at 30° C., 250 rpm, and 80% relative humidity. After 24 h, 50 μL from this pre-culture were used to inoculate a 2-mL, deep-well plates containing […] TB (Amp^+) medium per well. Cultures were grown at 37° C., 220 rpm, and 80% relative humidity. […]

[3] = Background NADPH oxidation rate in screen (cell lysate, no substrate); conditions: relative to 35-E11
Method: as §1
The relative dimethyl ether (DME) activity was measured, 1 hour after treatment with Purpald, as the average net and absorbance at 550 nm from 8 microtitre plate DME reactions of the mutant compared to 8 equivalent reactions of 35-E11. All values were normalized by measuring the P450 concentration in each well with CO binding. “Asteriks” indicate criteria used to select mutants from libraries for further characterization. The oxidation rate is measured as absorbance change at 340 nm over 1 minute upon the addition of NADPH to 8 microtitre plate wells containing P450-containing cell lysate and compared to 8 equivalent reactions of 35-E11. All values were normalized by measuring the P450 concentration in each well with CO binding. The total turnover number (TTN) was measured as the absorbance at 550 nm of methane reactions with each mutant after treatment with alcohol oxidase and […]

B1: 21-4G: P450 BM-3 variant, SEQ ID NO:13; 35-E11 plus D631N (protein)
chain: TIKEMPQPKTFGELKNLPLLNTDKPVQALMKIADELGEIFKFEAPGCVTRYLSSQRLIKEACDESRFDKNLSQALKFFRDFSGDGLFTSWTHEINWKKAHNILLPSFSQQAMKGYHAMMVDIAVQLVQKWERLNADEHIEVSEDMTRLTLDTIGLCGFNYRFNSFYRDQPHPFIISMVRALDEVMNKLQRANPDDPAYDENKRQCQEDIKVMNDLVDKIIADRKARGEQSDDLLTQMLNGKDPETGEPLDDGNISYQIITFLIAGHETTSGLLSFALYFLVKNPHVLQKVVEEAARVLVDPVPSYKQVKQLKYVGMVLNEALRLWPTFPAFSLYAKEDTVLGGEYPLEKGDEVMVLIPQLHRDKTIWGDDVEEFRPERFENPSAIPQHAFKPFGNGQRACIGQQFALHEATLVLGMMLKHFDFEDHTNYELDIKETLTLKPEGFVVKAKSKKIPLGGIPSPSTGQSAKKVRKKAENAHNTPLLVLYGSNMGTAEGTARDLADIAMSKGFAPQVATLDSHAGNLPREGAVLIVTASYNGHPPDNAKQFVDWLDQASADEVKGVRYSVFGCGDKNWATTYQKVPAFIDETLAAKGAENIADRGEADASDDFEGTYEEWREHMWSDVAAYFNLNIENSEDNKSTLSLQFVDSAADMPLAKMHGAFSTNVVASKELQQPGSARSTRHLEIELPKEASYQEGDHLGVIPRNYEGTVNRVTARFGLDASQQIRLEAEEEKLAHLPLAKTVSVEELLQYVELQDPVTRTQLRAMAAKTVCPPHKVELEALLEKQAYKEQVLAKRLTMLELLEKYPACEMKFSEFIALLPSIRPRYYSISSSPRVDEKQASITVSVVSGEAWSGYGEYKGIASNYLAELQEGDTITCFISTPQSEFTLPKDPETPLIMVGPGTGVAPFRGFVQARKQLKEQGQSLGEAHLYFGCRSPHEDYLYQEELENAQSEGIITLHTAFSRMPNQPKTYVQHVMEQDGKKLIELLDQGAHFYICGDGSQMAPAVEATLMKSYADVHQVSEADARLWLQQLEEKGRYAKDVWAG
modifications: Mutant P450 21-4G protein sequence
notes: 35-E11 plus D631N
[1]
  Methane TTN: 10
[2]
  Relative DME activity in screen: 1.1
[3]
  Relative background NADPH oxidation rate: 0.7*
